Where two headings read alike, the source gives them in different places. Square brackets hold non-standard residues; d marks the D form. hPhe = N[C@@H](CCc1ccccc1)C(=O)O; Nle = CCCC[C@H](N)C(=O)O; Dap = NC[C@H](N)C(=O)O
Assays:
Assay in all cases: cell-based or functional assay
[1] = molecular target: T1, mouse melanocortin-5 receptor (mouse, UniProt P41149 1-325)
[2] = molecular target: T2, mouse melanocortin-1 receptor (mouse, UniProt Q01727 1-315)
[3] = molecular target: T3, mouse melanocortin-3 receptor (mouse, UniProt P33033 1-323)
[4] = molecular target: T4, mouse melanocortin-4 receptor (mouse, UniProt P56450 1-332)
[5] = molecular target: T2, mouse melanocortin-1 receptor; remark: listed apart in the source
[6] = molecular target: T2, mouse melanocortin-1 receptor; remark: listed apart in the source
[7] = molecular target: T1, mouse melanocortin-5 receptor; remark: listed apart in the source
[8] = molecular target: T3, mouse melanocortin-3 receptor; remark: listed apart in the source
[9] = molecular target: T4, mouse melanocortin-4 receptor; remark: listed apart in the source

T3 sequence (P33033 whole entry): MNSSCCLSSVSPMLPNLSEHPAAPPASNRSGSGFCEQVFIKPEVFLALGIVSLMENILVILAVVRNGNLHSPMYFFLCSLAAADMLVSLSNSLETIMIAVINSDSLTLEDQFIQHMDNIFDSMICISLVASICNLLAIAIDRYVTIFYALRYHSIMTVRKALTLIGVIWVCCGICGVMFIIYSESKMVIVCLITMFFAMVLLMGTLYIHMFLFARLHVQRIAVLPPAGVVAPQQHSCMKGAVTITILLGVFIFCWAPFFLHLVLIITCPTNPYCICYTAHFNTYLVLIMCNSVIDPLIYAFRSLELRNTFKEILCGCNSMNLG
T4 sequence (P56450 whole entry): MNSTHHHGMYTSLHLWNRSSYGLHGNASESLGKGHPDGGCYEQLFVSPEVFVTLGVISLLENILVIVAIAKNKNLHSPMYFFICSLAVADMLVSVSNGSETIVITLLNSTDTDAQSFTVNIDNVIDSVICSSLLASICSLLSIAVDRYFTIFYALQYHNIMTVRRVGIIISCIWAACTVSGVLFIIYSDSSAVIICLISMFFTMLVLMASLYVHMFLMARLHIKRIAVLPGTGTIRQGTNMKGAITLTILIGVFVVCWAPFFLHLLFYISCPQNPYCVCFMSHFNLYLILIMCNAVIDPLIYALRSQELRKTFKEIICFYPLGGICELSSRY
T2 sequence (Q01727 whole entry): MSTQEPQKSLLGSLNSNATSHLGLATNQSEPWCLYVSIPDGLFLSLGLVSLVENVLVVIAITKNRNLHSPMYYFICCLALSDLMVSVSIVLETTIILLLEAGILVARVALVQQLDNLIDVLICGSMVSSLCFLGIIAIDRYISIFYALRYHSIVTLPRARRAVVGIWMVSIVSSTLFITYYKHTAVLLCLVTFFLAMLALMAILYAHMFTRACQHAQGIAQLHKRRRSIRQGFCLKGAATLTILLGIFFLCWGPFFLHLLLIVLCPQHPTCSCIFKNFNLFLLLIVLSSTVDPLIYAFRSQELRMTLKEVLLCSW
T1 sequence (P41149 whole entry): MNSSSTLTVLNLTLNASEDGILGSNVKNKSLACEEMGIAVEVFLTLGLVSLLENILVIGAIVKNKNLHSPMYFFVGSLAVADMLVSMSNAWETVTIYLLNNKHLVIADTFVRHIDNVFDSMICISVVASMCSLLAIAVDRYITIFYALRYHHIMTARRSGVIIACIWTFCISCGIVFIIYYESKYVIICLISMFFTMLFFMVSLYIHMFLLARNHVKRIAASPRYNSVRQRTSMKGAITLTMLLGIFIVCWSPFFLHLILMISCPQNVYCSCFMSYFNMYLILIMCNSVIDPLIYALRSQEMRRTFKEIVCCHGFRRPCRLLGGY

B1: c[Pro-Arg-Phe-hPhe-Asn-Ala-Nle-DPro] (peptide)
peptide: cyclo(PRF[hPhe]NA[Nle][dP])
SMILES: CCCC[C@@H]1NC(=O)[C@H](C)NC(=O)[C@H](CC(N)=O)NC(=O)[C@H](CCc2ccccc2)NC(=O)[C@H](Cc2ccccc2)NC(=O)[C@H](CCCNC(=N)N)NC(=O)[C@@H]2CCCN2C(=O)[C@H]2CCCN2C1=O
[1]
  EC50 (cAMP AlphaScreen, inverse agonist): > 100000 nM

## cyclo(P[dR][dF][dF]NAF[dP]) [c[Pro-DArg-DPhe-DPhe-Asn-Ala-Phe-DPro]]
[2]
  agonist EC50 (cAMP AlphaScreen): 1300 nM
  partial agonist efficacy, % of NDP-MSH: 85%

## cyclo(PR[dF][dF]NAF[dP]) [c[Pro-Arg-DPhe-DPhe-Asn-Ala-Phe-DPro]]
[2]
  agonist EC50 (cAMP AlphaScreen): 800 nM
  partial agonist efficacy, % of NDP-MSH: 85%

## cyclo(P[dR]FFNAF[dP]) [c[Pro-DArg-Phe-Phe-Asn-Ala-Phe-DPro]]
[2]
  % maximal NDP-MSH response at 100 µM (cAMP AlphaScreen): 50%

B2: c[Pro-Arg-Phe-Phe-Asn-Ser-Nle-DPro] (peptide)
peptide: cyclo(PRFFNS[Nle][dP])
SMILES: CCCC[C@@H]1NC(=O)[C@H](CO)NC(=O)[C@H](CC(N)=O)NC(=O)[C@H](Cc2ccccc2)NC(=O)[C@H](Cc2ccccc2)NC(=O)[C@H](CCCNC(=N)N)NC(=O)[C@@H]2CCCN2C(=O)[C@H]2CCCN2C1=O
[3]
  antagonist pA2 (Schild, agonist NDP-MSH): 6.6
[4]
  antagonist pA2 (Schild, agonist NDP-MSH): 8.5
[5]
  agonist EC50 (cAMP AlphaScreen): 2600 nM
  partial agonist, % receptor stimulation: 75%

B3: c[Pro-Arg-Phe-Phe-Leu-Ala-Phe-DPro] (peptide)
peptide: cyclo(PRFFLAF[dP])
SMILES: CC(C)C[C@@H]1NC(=O)[C@H](Cc2ccccc2)NC(=O)[C@H](Cc2ccccc2)NC(=O)[C@H](CCCNC(=N)N)NC(=O)[C@@H]2CCCN2C(=O)[C@H]2CCCN2C(=O)[C@H](Cc2ccccc2)NC(=O)[C@H](C)NC1=O
[6]
  agonist EC50 (cAMP AlphaScreen): > 100000 nM
[7]
  inverse agonist apparent potency: 110 nM
  inverse agonist, % decrease from basal cAMP: -20%
[8]
  agonist EC50 (cAMP AlphaScreen): > 100000 nM
  antagonist pA2 (Schild, agonist NDP-MSH): 5.7
[9]
  agonist EC50 (cAMP AlphaScreen): > 100000 nM
  antagonist pA2 (Schild, agonist NDP-MSH): 7.34

## cyclo(P[dR][dF]FNAF[dP]) [c[Pro-DArg-DPhe-Phe-Asn-Ala-Phe-DPro]]
[2]
  agonist EC50 (cAMP AlphaScreen): 500 nM
  partial agonist efficacy, % of NDP-MSH: 90%

B4: c[Pro-Arg-Phe-Phe-Dap-Ala-Nle-DPro] (peptide)
peptide: cyclo(PRFF[Dap]A[Nle][dP])
SMILES: CCCC[C@@H]1NC(=O)[C@H](C)NC(=O)[C@H](CN)NC(=O)[C@H](Cc2ccccc2)NC(=O)[C@H](Cc2ccccc2)NC(=O)[C@H](CCCNC(=N)N)NC(=O)[C@@H]2CCCN2C(=O)[C@H]2CCCN2C1=O
[3]
  antagonist pA2 (Schild, agonist NDP-MSH): 7.1
[4]
  antagonist pA2 (Schild, agonist NDP-MSH): 9
[5]
  agonist EC50 (cAMP AlphaScreen): 190 nM
[1]
  EC50 (cAMP AlphaScreen, inverse agonist): > 100000 nM

## cyclo(PRF[dF]NAF[dP]) [c[Pro-Arg-Phe-DPhe-Asn-Ala-Phe-DPro]]
[2]
  % maximal NDP-MSH response at 100 µM (cAMP AlphaScreen): 50%

## cyclo(PR[dF]FNAF[dP]) [c[Pro-Arg-DPhe-Phe-Asn-Ala-Phe-DPro]]
[2]
  agonist EC50 (cAMP AlphaScreen): 700 nM

## PRFFXAFP (head-to-tail cyclic; hPhe at 4; Dap at 5; DPro at 8) [c[Pro-Arg-Phe-hPhe-Dap-Ala-Phe-DPro]]
[3]
  antagonist pA2 (Schild, agonist NDP-MSH): 7.1
[5]
  agonist EC50 (cAMP AlphaScreen): 560 nM
  partial agonist, % receptor stimulation: 70%
[1]
  EC50 (cAMP AlphaScreen, inverse agonist): > 100000 nM

Reference: patent US20200115416A1 (REGENTS OF THE UNIVERSITY OF MINNESOTA, published 2020)
